Patent US10472401B2, “Peptides and combination of peptides for use in immunotherapy against ovarian cancer and other cancers” (immatics biotechnologies GmbH, priority 2015, dated 2019)

These substances were tested against HLA-A*02:01 (Homo sapiens, UniProt P04439, D140Y/D185E/D98H/E176V/E277Q/G131W/G231S/I119V/I121R/I166T/I218V/L300P/L318F/N151K/N90K/P208A/P217A/Q86G/Q94H/R138H/R169H/T345S) (assay: MHC binding assay (UV-ligand exchange, ELISA of stabilized MHC complexes)). Conditions: MHC class I binding score; binding to HLA-A*02:01 ranged by peptide exchange yield (UV-ligand exchange, ELISA).
From the text: Candidate peptides for T cell based therapies according to the present invention were further tested for their MHC binding capacity (affinity). The individual peptide-MHC complexes were produced by UV-ligand exchange, where a UV-sensitive peptide is cleaved upon UV-irradiation, and exchanged with the peptide of interest as analyzed. Only peptide candidates that can effectively bind and stabilize the peptide-receptive MHC molecules prevent dissociation of the MHC complexes. To determine the yield of the exchange reaction, an ELISA was performed based on the detection of the light chain (β2m) of stabilized MHC complexes. The assay was performed as generally described in Rodenko et al. (Rodenko et al., 2006).
96 well MAXISorp plates (NUNC) were coated over night with 2 ug/ml streptavidin in PBS at room temperature, washed 4× and blocked for 1h at 37° C. in 2% BSA containing blocking buffer. […] Peptide-MHC monomers of the UV-exchange reaction were diluted 100 fold in blocking buffer. Samples were incubated for 1h at 37° C., washed four times, incubated with 2 ug/ml HRP conjugated anti-82m for 1h at 37° C., washed again and detected with TMB solution that is stopped with […]. Absorption was measured at 450 nm. Candidate peptides that show a high exchange yield (preferably higher than 50%, most preferred higher than 75%) are generally preferred for a generation and production of antibodies or fragments thereof, and/or T cell receptors or fragments thereof, as they show sufficient avidity to the MHC molecules and prevent dissociation of the MHC complexes.

Peptide exchange	Substance
″++″ (≥20% = ++)	87 (ALPEAPAPLLPHIT; listed as Homo sapiens) [compound 87]
″+++″ (≥50% = +++)	88 (FLLVGDLMAV; listed as Homo sapiens) [compound 88]
″++++″ (≥75% = ++++)	89 (YILPTETIYV; listed as Homo sapiens) [compound 89]
″+++″ (≥50% = +++)	90 (TLLQIIETV; listed as Homo sapiens) [compound 90]
″++++″ (≥75% = ++++)	91 (IMQDFPAEIFL; listed as Homo sapiens) [compound 91]
″++″ (≥20% = ++)	92 (YLIPFTGIVGL; listed as Homo sapiens) [compound 92]
″++″ (≥20% = ++)	93 (LLQAIKLYL; listed as Homo sapiens) [compound 93]
″++″ (≥20% = ++)	94 (YLIDIKTIAI; listed as Homo sapiens) [compound 94]
″+++″ (≥50% = +++)	95 (SVIPQIQKV; listed as Homo sapiens) [compound 95]
″+++″ (≥50% = +++)	96 (YIFTDNPAAV; listed as Homo sapiens) [compound 96]
″+++″ (≥50% = +++)	97 (SLINGSFLV; listed as Homo sapiens) [compound 97]
″+++″ (≥50% = +++)	98 (LIIDQADIYL; listed as Homo sapiens) [compound 98]
″++″ (≥20% = ++)	99 (ALVSKGLATV; listed as Homo sapiens) [compound 99]
″++++″ (≥75% = ++++)	100 (YLLSTNAQL; listed as Homo sapiens) [compound 100]
″+++″ (≥50% = +++)	101 (ILVGGGALATV; listed as Homo sapiens) [compound 101]
″+++″ (≥50% = +++)	102 (YLFESEGLVL; listed as Homo sapiens) [compound 102]
″+++″ (≥50% = +++)	103 (TLAEEVVAL; listed as Homo sapiens) [compound 103]
″++++″ (≥75% = ++++)	104 (STMEQNFLL; listed as Homo sapiens) [compound 104]
″+++″ (≥50% = +++)	106 (LLYDAVHIVSV; listed as Homo sapiens) [compound 106]
″+++″ (≥50% = +++)	107 (FLQPVDDTQHL; listed as Homo sapiens) [compound 107]
″++++″ (≥75% = ++++)	108 (ALFPGVALLLA; listed as Homo sapiens) [compound 108]
″++++″ (≥75% = ++++)	109 (IILSILEQA; listed as Homo sapiens) [compound 109]
″+++″ (≥50% = +++)	110 (FLSQVDFEL; listed as Homo sapiens) [compound 110]
″+++″ (≥50% = +++)	111 (YVWGFYPAEV; listed as Homo sapiens) [compound 111]

Peptide exchange	Substance
″++″ (≥20% = ++)	114 (SLVGEPILQNV; listed as Homo sapiens) [compound 114]
″++″ (≥20% = ++)	115 (AIAGAGILYGV; listed as Homo sapiens) [compound 115]
″+″ (≥10% = +)	116 (YHIDEEVGF; listed as Homo sapiens) [compound 116]
″+++″ (≥50% = +++)	117 (ILPDGEDFLAV; listed as Homo sapiens) [compound 117]
″++++″ (≥75% = ++++)	119 (FLYIGDIVSL; listed as Homo sapiens) [compound 119]
″+++″ (≥50% = +++)	120 (ALLGIPLTLV; listed as Homo sapiens) [compound 120]
″++″ (≥20% = ++)	121 (GVVDPRAISVL; listed as Homo sapiens) [compound 121]
″+++″ (≥50% = +++)	122 (FLLAEDDIYL; listed as Homo sapiens) [compound 122]
″+++″ (≥50% = +++)	123 (NLWDLTDASVV; listed as Homo sapiens) [compound 123]
″++″ (≥20% = ++)	124 (ALYETELADA; listed as Homo sapiens) [compound 124]
″+++″ (≥50% = +++)	125 (VQIHQVAQV; listed as Homo sapiens) [compound 125]
″++++″ (≥75% = ++++)	126 (VLAYFLPEA; listed as Homo sapiens) [compound 126]
″++″ (≥20% = ++)	127 (KIGDEPPKV; listed as Homo sapiens) [compound 127]
″++″ (≥20% = ++)	128 (YLFDDPLSAV; listed as Homo sapiens) [compound 128]
″+++″ (≥50% = +++)	129 (GLLDGGVDILL; listed as Homo sapiens) [compound 129]
″+++″ (≥50% = +++)	130 (FLWNGEDSALL; listed as Homo sapiens) [compound 130]
″++″ (≥20% = ++)	131 (FVPPVTVFPSL; listed as Homo sapiens) [compound 131]
″+++″ (≥50% = +++)	132 (LLVEQPPLAGV; listed as Homo sapiens) [compound 132]
″++″ (≥20% = ++)	133 (KVLSNIHTV; listed as Homo sapiens) [compound 133]
″+++″ (≥50% = +++)	134 (YLQELIFSV; listed as Homo sapiens) [compound 134]
″+++″ (≥50% = +++)	135 (ALSEVDFQL; listed as Homo sapiens) [compound 135]
″+++″ (≥50% = +++)	136 (YLADPSNLFVV; listed as Homo sapiens) [compound 136]
″++++″ (≥75% = ++++)	137 (TLVLTLPTV; listed as Homo sapiens) [compound 137]
″+++″ (≥50% = +++)	138 (YQYPRAILSV; listed as Homo sapiens) [compound 138]

Peptide exchange	Substance
″+++″ (≥50% = +++)	139 (SVMEVNSGIYRV; listed as Homo sapiens) [compound 139]
″++″ (≥20% = ++)	140 (YMDAPKAAL; listed as Homo sapiens) [compound 140]
″+++″ (≥50% = +++)	142 (FLFATPVFI; listed as Homo sapiens) [compound 142]
″+++″ (≥50% = +++)	144 (YIMEPSIFNTL; listed as Homo sapiens) [compound 144]
″++″ (≥20% = ++)	145 (FLATSGTLAGI; listed as Homo sapiens) [compound 145]
″++″ (≥20% = ++)	146 (SLATAGDGLIEL; listed as Homo sapiens) [compound 146]
″+++″ (≥50% = +++)	147 (SLLEAVSFL; listed as Homo sapiens) [compound 147]
″++″ (≥20% = ++)	148 (ALNPEIVSV; listed as Homo sapiens) [compound 148]
″+++″ (≥50% = +++)	149 (NLLELFVQL; listed as Homo sapiens) [compound 149]
″+++″ (≥50% = +++)	151 (KILQQLVTL; listed as Homo sapiens) [compound 151]
″+++″ (≥50% = +++)	152 (ILFEDIFDV; listed as Homo sapiens) [compound 152]
″+″ (≥10% = +)	153 (FLIANVLYL; listed as Homo sapiens) [compound 153]
″++″ (≥20% = ++)	154 (ALDDGTPAL; listed as Homo sapiens) [compound 154]
″+++″ (≥50% = +++)	155 (RVANLHFPSV; listed as Homo sapiens) [compound 155]
″++″ (≥20% = ++)	157 (SLNDEVPEV; listed as Homo sapiens) [compound 157]
″+++″ (≥50% = +++)	158 (KLFDVDEDGYI; listed as Homo sapiens) [compound 158]
″++++″ (≥75% = ++++)	159 (GLVGNPLPSV; listed as Homo sapiens) [compound 159]
″+++″ (≥50% = +++)	160 (FLFDEEIEQI; listed as Homo sapiens) [compound 160]
″+++″ (≥50% = +++)	161 (ALLEGVNTV; listed as Homo sapiens) [compound 161]
″+++″ (≥50% = +++)	162 (YQQAQVPSV; listed as Homo sapiens) [compound 162]
″+++″ (≥50% = +++)	163 (ALDEMGDLLQL; listed as Homo sapiens) [compound 163]
″+++″ (≥50% = +++)	164 (ALLPQPKNLTV; listed as Homo sapiens) [compound 164]
″+++″ (≥50% = +++)	165 (SLLDEIRAV; listed as Homo sapiens) [compound 165]
